Values of other authors in article PMC5700508.
pKd: −log10 of the molar value.

Molecular target: transferrin receptor (Homo sapiens) (UniProt P02786)
Sequence (P02786 101-760): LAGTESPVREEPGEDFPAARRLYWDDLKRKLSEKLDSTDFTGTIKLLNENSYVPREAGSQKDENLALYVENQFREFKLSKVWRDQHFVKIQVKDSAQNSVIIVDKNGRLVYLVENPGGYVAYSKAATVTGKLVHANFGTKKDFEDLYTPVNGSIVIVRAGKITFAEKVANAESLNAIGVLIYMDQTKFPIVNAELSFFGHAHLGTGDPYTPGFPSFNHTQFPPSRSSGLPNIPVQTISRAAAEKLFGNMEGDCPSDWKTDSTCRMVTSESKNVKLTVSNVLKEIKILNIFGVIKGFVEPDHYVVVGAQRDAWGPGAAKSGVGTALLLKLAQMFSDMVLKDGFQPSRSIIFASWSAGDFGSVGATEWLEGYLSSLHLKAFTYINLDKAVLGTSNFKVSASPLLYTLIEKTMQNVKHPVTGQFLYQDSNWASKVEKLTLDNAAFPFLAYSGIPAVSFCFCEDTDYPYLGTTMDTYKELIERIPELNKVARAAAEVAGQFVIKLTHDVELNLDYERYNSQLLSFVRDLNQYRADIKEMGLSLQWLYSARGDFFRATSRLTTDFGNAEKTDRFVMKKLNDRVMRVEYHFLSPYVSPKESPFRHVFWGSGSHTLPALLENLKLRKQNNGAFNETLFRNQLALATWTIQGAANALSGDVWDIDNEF

pKd: 8.00
Substance: T7 peptide
